From publication PMC3199332

Substrate: CC(C)=CCNc1ncnc2nc[nH]c12
Test: UV absorbance steady-state kinetics
Format: biochemical, Paraglaciecola sp. T6c
Details: hydrolytic deamination; compound 1 identified by kcat/Km 1.2 × 10^7

B1: Patl2390 (Paraglaciecola sp. T6c) (protein)
chain: MQTQPLDIQQFISDMPKAELHVHLEGTLEPELSFALAVKNRIPLEFDTPEQLIAAYDFHDLPSFLKIYYAGMNVLIKEEDFYQLTWDYLTKAASENIVYAELFFDPQAHTSRGVSFETIITGIHKAQLDAEQKLGIRSQLIMCFLRELSAESAMEHLKLAMPYLPWLVGVGLDSNERDNPPAKFAEVFEYAKALDLKLTMHCDVNQHNTLVHIKQCLDDIQVDRIDHGVNALQDPALLEKIKHKQLGLTVCPISNRFVVQSLTSNEVRQMLEHELLVTINSDDPAYFRAYLNENFIELQKEGQFSAQEMITLVENAFKVSWLKDTEISQYLYQVSQYVKQAEYQAA
kcat: 7.3 ± 0.1 s⁻¹ | kcat/Km: 1.2e+07 M⁻¹ s⁻¹
